Biological target: insulin receptor (IR), B-isoform (UniProt P06213)
Test: relative binding affinity to insulin receptor, displacement of 125I-human insulin

Q: With “ester insulin lispro folded (2) (ligand)” as the substance, how does the relative activity (relative binding affinity) read?
A: < 0.5%
